# Results published in patent publication US20170204158A1 (Regeneron, published 2017).
# Where “and” joins values, the source holds several entries; their conditions need not be identical. Equal entries are not always repeated.
# T1: human IL-33 (R&D Systems, # 3625-IL-010/CF) (human, UniProt O95760 112-270, biotinylated in the blocking ELISA of Example 3 (sites not given))
# T1 sequence (looked up): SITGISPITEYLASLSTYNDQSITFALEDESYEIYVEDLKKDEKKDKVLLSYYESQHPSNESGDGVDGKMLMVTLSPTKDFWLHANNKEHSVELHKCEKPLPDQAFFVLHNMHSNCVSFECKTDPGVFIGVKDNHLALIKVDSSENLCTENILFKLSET
# T2: mouse IL-33 (R&D Systems, # 3626-ML-010/CF) (mouse, UniProt Q8BVZ5 109-266)
# T2 sequence (looked up): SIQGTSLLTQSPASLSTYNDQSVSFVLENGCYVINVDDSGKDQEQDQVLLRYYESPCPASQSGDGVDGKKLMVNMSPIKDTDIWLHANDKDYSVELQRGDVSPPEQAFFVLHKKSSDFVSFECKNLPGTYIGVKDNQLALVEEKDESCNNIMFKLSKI
# T3: human ST2 (amino acids 1-556 of accession number NP_057316) on HEK293/hST2/NFkB-luciferase cells (human, UniProt Q01638 19-556)
# T3 sequence (looked up): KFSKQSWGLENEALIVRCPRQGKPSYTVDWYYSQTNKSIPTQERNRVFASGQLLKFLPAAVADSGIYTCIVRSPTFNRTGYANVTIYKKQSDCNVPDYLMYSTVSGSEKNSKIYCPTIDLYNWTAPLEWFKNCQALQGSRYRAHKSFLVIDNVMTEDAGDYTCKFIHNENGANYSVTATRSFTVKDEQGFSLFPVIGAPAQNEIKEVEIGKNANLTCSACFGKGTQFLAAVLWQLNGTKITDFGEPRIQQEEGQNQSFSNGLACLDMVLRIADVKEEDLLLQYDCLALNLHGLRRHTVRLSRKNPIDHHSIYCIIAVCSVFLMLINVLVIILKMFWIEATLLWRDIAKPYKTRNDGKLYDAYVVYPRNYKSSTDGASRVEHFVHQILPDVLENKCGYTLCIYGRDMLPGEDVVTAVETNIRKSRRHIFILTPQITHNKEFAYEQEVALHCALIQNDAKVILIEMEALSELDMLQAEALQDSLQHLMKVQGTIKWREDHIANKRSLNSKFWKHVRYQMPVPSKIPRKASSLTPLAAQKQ
# B1: mST2-mIL1RAcP-mFc (Fc fusion)
# chain: SKSSWGLENEALIVRCPQRGRSTYPVEWYYSDTNESIPTQKRNRIFVSRDRLKFLPARVEDSGIYACVIRSPNLNKTGYLNVTIHKKPPSCNIPDYLMYSTVRGSDKNFKITCPTIDLYNWTAPVQWFKNCKALQEPRFRAHRSYLFIDNVTHDDEGDYTCQFTHAENGTNYIVTATRSFTVEEKGFSMFPVITNPPYNHTMEVEIGKPASIACSACFGKGSHFLADVLWQINKTVVGNFGEARIQEEEGRNESSSNDMDCLTSVLRITGVTEKDLSLEYDCLALNLHGMIRHTIRLRRKQPIDHRSERCDDWGLDTMRQIQVFEDEPARIKCPLFEHFLKYNYSTAHSSGLTLIWYWTRQDRDLEEPINFRLPENRISKEKDVLWFRPTLLNDTGNYTCMLRNTTYCSKVAFPLEVVQKDSCFNSAMRFPVHKMYIEHGIHKITCPNVDGYFPSSVKPSVTWYKGCTEIVDFHNVLPEGMNLSFFIPLVSNNGNYTCVVTYPENGRLFHLTRTVTVKVVGSPKDALPPQIYSPNDRVVYEKEPGEELVIPCKVYFSFIMDSHNEVWWTIDGKKPDDVTVDITINESVSYSSTEDETRTQILSIKKVTPEDLRRNYVCHARNTKGEAEQAAKVKQKVIPPRYTVESGEPRGPTIKPCPPCKCPAPNLLGGPSVFIFPPKIKDVLMISLSPIVTCVVVDVSEDDPDVQISWFVNNVEVHTAQTQTHREDYNSTLRVVSALPIQHQDWMSGKEFKCKVNNKDLPAPIERTISKPKGSVRAPQVYVLPPPEEEMTKKQVTLTCMVTDFMPEDIYVEWTNNGKTELNYKNTEPVLDSDGSYFMYSKLRVEKKNWVERNSYSCSVVHEGLHNHHTTKSFSRTPGK
# notes: also called fourth IL-33 antagonist; mouse IL-33 Trap
# B2: monkey IL-33 expressed with C-terminal hexahistidine tag (MfIL-33-6His) (ligand)
# chain: SITGISPITESLASLSTYNDQSITFALEDESYEIYVEDLKKDKKKDKVLLSYYESQHPSSESGDGVDGKMLMVTLSPTKDFWLQANNKEHSVELHKCEKPLPDQAFFVLHNRSFNCVSFECKTDPGVFIGVKDNHLALIKVDYSENLGSENILFKLSEILEHHHHHH
# B3: hST2-mFc (Fc fusion)
# chain: KFSKQSWGLENEALIVRCPRQGKPSYTVDWYYSQTNKSIPTQERNRVFASGQLLKFLPAAVADSGIYTCIVRSPTFNRTGYANVTIYKKQSDCNVPDYLMYSTVSGSEKNSKIYCPTIDLYNWTAPLEWFKNCQALQGSRYRAHKSFLVIDNVMTEDAGDYTCKFIHNENGANYSVTATRSFTVKDEQGFSLFPVIGAPAQNEIKEVEIGKNANLTCSACFGKGTQFLAAVLWQLNGTKITDFGEPRIQQEEGQNQSFSNGLACLDMVLRIADVKEEDLLLQYDCLALNLHGLRRHTVRLSRKNPIDHHSEPRGPTIKPCPPCKCPAPNLLGGPSVFIFPPKIKDVLMISLSPIVTCVVVDVSEDDPDVQISWFVNNVEVHTAQTQTHREDYNSTLRVVSALPIQHQDWMSGKEFKCKVNNKDLPAPIERTISKPKGSVRAPQVYVLPPPEEEMTKKQVTLTCMVTDFMPEDIYVEWTNNGKTELNYKNTEPVLDSDGSYFMYSKLRVEKKNWVERNSYSCSVVHEGLHNHHTTKSFSRTPGK
# notes: also called second IL-33 antagonist; ST2 receptor protein
# Experiments:
# [1] = target: T1, human IL-33 (R&D Systems, # …); experiment: cell-based or functional assay
# [2] = target: T2, mouse IL-33 (R&D Systems, # …); experiment: cell-based or functional assay
# [3] = target: B2; experiment: cell-based or functional assay
# [4] = target: T1, human IL-33 (R&D Systems, # …); experiment: SPR (Biacore T-200), 25 C; Fc fusion captured by anti-Fc antibody, IL-33 injected
# Experimental: (§1) The Biacore sensor surface was first derivatized by amine coupling a polyclonal rabbit anti-mouse antibody (GE, # BR-1008-38) or with a monoclonal mouse anti-human Fc antibody (GE, # BR-1008-39) to capture IL-33 Trap and receptor proteins with a C-terminal mouse IgG2a Fc tag or a C-terminal human IgG1 Fc tag, respectively. Kinetic experiments were carried out in 0.01 M HEPES pH 7.4, 0.15 M NaCl, 3 mM EDTA, and 0.005% v/v Surfactant Tween-20 (HBST running buffer). Different concentrations of human IL-33, mouse IL-33 or MfIL-33-6His prepared in HBST running buffer (ranging from 60 nM to 27.4 pM, 3-fold dilutions, for Trap proteins and ranging from 60 nM to 0.25 nM, 3-fold dilutions, for ST2 receptor proteins) were injected over the captured IL-33 Trap and receptor protein surfaces at a flow rate of 50 μL/minute. Association of different IL-33 proteins to the different capture surfaces was monitored for 7 minutes for Trap proteins or 4 minutes for ST2 receptor proteins and their dissociation in HBST running buffer was monitored for 14 minutes for Trap proteins or 8 minutes for ST2 receptor proteins. Kinetic association (ka) and dissociation (kd) rate constants were determined by fitting the real-time binding sensorgrams to a 1:1 binding model using Scrubber 2.0c curve-fitting software. Binding dissociation equilibrium constants (KD) and dissociative half-lives (t½) were calculated from the kinetic rate constants as: […]
# [5] = target: T1, human IL-33 (R&D Systems, # …); experiment: SPR (Biacore T-200), 37 C; Fc fusion captured by anti-Fc antibody, IL-33 injected
# Experimental: as §1
# [6] = target: T2, mouse IL-33 (R&D Systems, # …); experiment: SPR (Biacore T-200), 25 C; Fc fusion captured by anti-Fc antibody, mouse IL-33 injected
# Experimental: as §1
# [7] = target: T2, mouse IL-33 (R&D Systems, # …); experiment: SPR (Biacore T-200), 37 C; Fc fusion captured by anti-Fc antibody, mouse IL-33 injected
# Experimental: as §1
# [8] = target: B2; experiment: SPR (Biacore T-200), 25 C; Fc fusion captured by anti-Fc antibody, MfIL-33-6His injected
# Experimental: as §1
# [9] = target: B2; experiment: SPR (Biacore T-200), 37 C; Fc fusion captured by anti-Fc antibody, MfIL-33-6His injected
# Experimental: as §1
# [10] = target: T1, human IL-33 (R&D Systems, # …); experiment: competition ELISA; antagonist pre-mixed with 20 pM biotin-hIL-33, binding to plate-coated human ST2-Fc
# Experimental: (§2) The ability of exemplary IL-33 antagonists of the invention to block human IL-33 (hIL-33) binding to the human ST2 receptor was measured using a competition sandwich ELISA. A portion of human ST2 protein ecto domain that was expressed with a C-terminal mouse Fc tag (SEQ ID NO:2) was coated at a concentration of 1 μg/mL in PBS buffer on a 96-well microtiter plate overnight at 4° C. […] Biotinylated hIL-33 protein (R&D systems, #3625-IL/CF) (biot-hIL-33) was added to achieve a constant final concentration of 20 pM to serial dilutions of IL-33 antagonists ranging from 0 to 100 nM. The mixture was incubated for 1 hour at room temperature (RT) before transfer to the hST2-hFc coated microtiter plates. After incubation for 1 hour at RT, the wells were then washed, and plate-bound biot-hIL-33 was detected with HRP-conjugated streptavidin (Thermo Scientific, # N200). All samples were developed with a TMB solution (BD biosciences, # 51-2607KC) to produce a colorimetric reaction and then quenched by acidification with 1M sulfuric acid before measuring absorbance at 450 nm on a Victor X5 plate reader (PerkinElmer). Data analysis was performed using a sigmoidal dose-response model within Prism™ software. […] Maximum blocking values represent the ability of the antagonists to block IL-33 binding relative to baseline. The absorbance measured at the constant amount of hIL-33 on the dose curve was defined as 0% blocking and the absorbance with no added IL-33 was defined as 100% blocking. The absorbance values of the wells containing the highest concentration tested for each antagonist were used to determine the maximum blocking percent.
# [11] = target: T1, human IL-33 (R&D Systems, # …); experiment: competition ELISA; antagonist pre-mixed with 20 pM biotin-hIL-33, binding to plate-coated human ST2-Fc; highest concentration tested
# Experimental: as §2
# [12] = target: T3, human ST2 (amino acids 1-556 of …); experiment: cell-based or functional assay
"IC50 (M), inhibition of 5 pM human IL-33 activation of HEK293/hST2/NFkB-luciferase cells [1]","IC50 (M), inhibition of 30 pM mouse IL-33 activation of HEK293/hST2/NFkB-luciferase cells [2]","IC50 (M), inhibition of 5 pM monkey IL-33 activation of HEK293/hST2/NFkB-luciferase cells [3]",60 nM Human IL-33 Bound (RU) [4],Kd [4],koff [4],kon [4],t1/2 [4],60 nM Mouse IL-33 Bound (RU) [6],Kd [6],koff [6],kon [6],t1/2 [6],IC50 [10],% Maximum blocking [11],Binder,also measured
4.8e-10 M,8.7e-12 M,6.4e-11 M,22 RU,0.0709 nM,0.00129 s⁻¹,1.82e+07 M⁻¹ s⁻¹,9 min,22 RU,0.0105 nM,4.94e-05 s⁻¹,4.73e+06 M⁻¹ s⁻¹,234 min,0.112 nM,97%,B1,60 nM Human IL-33 Bound (RU) [5]: 20 RU; Kd [5]: 0.353 nM; koff [5]: 0.00322 s⁻¹; kon [5]: 9.11e+06 M⁻¹ s⁻¹; t1/2 [5]: 4 min; 60 nM Mouse IL-33 Bound (RU) [7]: 20 RU; Kd [7]: 0.0213 nM; koff [7]: 0.000128 s⁻¹; kon [7]: 6e+06 M⁻¹ s⁻¹; t1/2 [7]: 90 min; 60 nM Monkey IL-33 Bound (RU) [8]: 23 RU; Kd [8]: 0.0535 nM; koff [8]: 0.000244 s⁻¹; kon [8]: 4.55e+06 M⁻¹ s⁻¹; t1/2 [8]: 47 min; 60 nM Monkey IL-33 Bound (RU) [9]: 21 RU; Kd [9]: 0.19 nM; koff [9]: 0.00117 s⁻¹; kon [9]: 6.16e+06 M⁻¹ s⁻¹; t1/2 [9]: 10 min
–,–,–,–,–,–,–,–,–,–,–,–,–,–,–,B2,"EC50 (M), activation of HEK293/hST2/NFkB-luciferase cells [12]: 1.7e-12 M and 1.3e-12 M"
1.2e-11 M,1.4e-10 M,5.5e-12 M,24 RU,0.0536 nM,0.000307 s⁻¹,5.72e+06 M⁻¹ s⁻¹,38 min,18 RU,0.0882 nM,0.00035 s⁻¹,3.97e+06 M⁻¹ s⁻¹,33 min,0.0169 nM,100%,B3,–
